B1: Pleckstrin homology domain-containing family M member 1 (Homo sapiens), Q9Y4G2 (parent)
chain: MLSVVENGLDPQAAIPVIKKKLVGSVKALQKQYVSLDTVVTSEDGDANTMCSALEAVFIHGLHAKHIRAEAGGKRKKSAHQKPLPQPVFWPLLKAVTHKHIISELEHLTFVNTDVGRCRAWLRLALNDGLMECYLKLLLQEQARLHEYYQPTALLRDAEEGEFLLSFLQGLTSLSFELSYKSAILNEWTLTPLALSGLCPLSELDPLSTSGAELQRKESLDSISHSSGSEDIEVHHSGHKIRRNQKLTASSLSLDTASSSQLSCSLNSDSCLLQENGSKSPDHCEEPMSCDSDLGTANAEDSDRSLQEVLLEFSKAQVNSVPTNGLSQETEIPTPQASLSLHGLNTSTYLHCEAPAEPLPAQAASGTQDGVHVQEPRPQAPSPLDLQQPVESTSGQQPSSTVSETAREVGQGNGLQKAQAHDGAGLKLVVSSPTSPKNKSWISEDDFYRPSREQPLESASDHPIASYRGTPGSRPGLHRHFSQEPRKNCSLGALDQACVPSPGRRQAQAAPSQGHKSFRVVHRRQMGLSNPFRGLMKLGTVERRGAMGIWKELFCELSPLEFRLYLSNEEHTCVENCSLLRCESVGPAHSDGRFELVFSGKKLALRASSQDEAEDWLDRVREALQKVRPQQEDEWVNVQYPDQPEEPPEAPQGCLSPSDLLSEPAALQGTQFDWSSAQVPEPDAIKESLLYLYMDRTWMPYIFSLSLEALKCFRIRNNEKMLSDSHGVETIRDILPDTSLGGPSFFKIITAKAVLKLQAGNAEEAALWRDLVRKVLASYLETAEEAVTLGGSLDENCQEVLKFATRENGFLLQYLVAIPMEKGLDSQGCFCAGCSRQIGFSFVRPKLCAFSGLYYCDICHQDDASVIPARIIHNWDLTKRPICRQALKFLTQIRAQPLINLQMVNASLYEHVERMHLIGRRREQLKLLGDYLGLCRSGALKELSKRLNHRNYLLESPHRFSVADLQQIADGVYEGFLKALIEFASQHVYHCDLCTQRGFICQICQHHDIIFPFEFDTTVRCAECKTVFHQSCQAVVKKGCPRCARRRKYQEQNIFA

Tests used:
[1] = variants of: B1; conditions: with rab7a_canlf RAB7A
[2] = variants of: B1; conditions: with gbrap_human GABARAP

effect of a mutation on the interaction [1]	effect of a mutation on the interaction [2]	Variant
with no effect	with no effect	S432A;S435A
with no effect	with no effect	S432D;S435D
